These are literature values, as cited in PMC4920389.

This data set deals with Glu23 (UniProt position 23, FAVDEENKIGQ). The experiment in a line: stability. The following applies: native (folded) state.

For the substance “MNEI (single-chain monellin) (Dioscoreophyllum cumminsii)”, the pKa result is “approximately 7.5”.
